Assay results published in publication doi:10.1101/2025.06.12.659244 (bioRxiv, 2025).

How the values were obtained:
[1] = target: the molecule itself; assay: cryo-EM structure
[2] = target: the molecule itself; assay: cryo-EM structure; remark: listed apart in the source
[3] = target: the molecule itself; assay: SEC-MALS

B1: St3 Cas2 (untagged), Cas2 homodimer of the St3 Cas1-Cas2 integrase (natural protein, S. thermophilus DGCC 7710)
chain: MSYRYMRMILMFDMPTDTAEERKAYRKFRKFLLSEGFIMHQFSVYSKLLLNHTANTAMVGRLKANNPKKGNITILTVTEKQFARMIYLYGDKNTSIANSEERLVFLGDNYCDED
stoichiometry N [1]: 2

B2: St3Csn2^Y212R+I213R+M215R (Interface 1 mutant of St3Csn2) (natural protein, S. thermophilus DGCC 7710, UniProt G3ECR4 1-219, looked up)
chain: MKINFSLLDEPMEVNLGTVLVIEDVSVFAQLVKEFYQYDEQSNLTIFDSKIRSIRSSELLLITDILGYDINTSQVLKLLHTDIVSQLNDKPEVRSEIDSLVSLITDIIMAECIENELDIEYDEITLLELIKALGVRIETKSCTVFEKIFEILQIFKYLVKKRILVFVNSLSYFSKDEIYQILEYTKLSQADVLFLEPRQIEGIQQFILDKDRRLRPYNN
stoichiometry N [2]: 4

B3: St3Csn2 (accessory protein Csn2 of the S. thermophilus DGCC 7710 CRISPR3 system), homotetrameric ring (natural protein)
chain: MKINFSLLDEPMEVNLGTVLVIEDVSVFAQLVKEFYQYDEQSNLTIFDSKIRSIRSSELLLITDILGYDINTSQVLKLLHTDIVSQLNDKPEVRSEIDSLVSLITDIIMAECIENELDIEYDEITLLELIKALGVRIETKSCTVFEKIFEILQIFKYLVKKRILVFVNSLSYFSKDEIYQILEYTKLSQADVLFLEPRQIEGIQQFILDKDYILMPYNN
stoichiometry N [3]: 4

B4: St3 Cas1 (C-terminal StrepII-Tag), Cas1 homodimer of the St3 Cas1-Cas2 integrase (enzyme, S. thermophilus DGCC 7710)
chain: MAGWRTVVVNIHSKLSYKNNHLIFRNSYKTEMIHLSEIDILLLETTDIVLTTMLVKRLVDENILVIFCDDKRLPTAFLTPYYARHDSSLQIARQIAWKENVKCEVWTAIIAQKILNQSYYLGECSFFEKSQSIMELYHGLERFDPSNREGHSARIYFNTLFGNDFTRESDNDINAALDYGYTLLLSMFAREVVVCGCMTQIGLKHANQFNQFNLASDIMEPFRPIIDRIVYQNRHNNFVKIKKELFSIFSETYLYNGKEMYLSNIVSDYTKKVIKALNQLGEEIPEFRI
stoichiometry N [1]: 2

B5: St3 Cas1 (C-terminal HisTag), Cas1 homodimer of the St3 Cas1-Cas2 integrase (enzyme, S. thermophilus DGCC 7710)
chain: MAGWRTVVVNIHSKLSYKNNHLIFRNSYKTEMIHLSEIDILLLETTDIVLTTMLVKRLVDENILVIFCDDKRLPTAFLTPYYARHDSSLQIARQIAWKENVKCEVWTAIIAQKILNQSYYLGECSFFEKSQSIMELYHGLERFDPSNREGHSARIYFNTLFGNDFTRESDNDINAALDYGYTLLLSMFAREVVVCGCMTQIGLKHANQFNQFNLASDIMEPFRPIIDRIVYQNRHNNFVKIKKELFSIFSETYLYNGKEMYLSNIVSDYTKKVIKALNQLGEEIPEFRI
stoichiometry N [2]: 2
